Common to all, as to assay: SPR, ratio of KD to KD of WT
The target of one test is T1, FVII(a) variant L120A (human, UniProt P08709 61-466).
T1 construct: hFVII alanine variant in cell culture supernatant
T1 sequence: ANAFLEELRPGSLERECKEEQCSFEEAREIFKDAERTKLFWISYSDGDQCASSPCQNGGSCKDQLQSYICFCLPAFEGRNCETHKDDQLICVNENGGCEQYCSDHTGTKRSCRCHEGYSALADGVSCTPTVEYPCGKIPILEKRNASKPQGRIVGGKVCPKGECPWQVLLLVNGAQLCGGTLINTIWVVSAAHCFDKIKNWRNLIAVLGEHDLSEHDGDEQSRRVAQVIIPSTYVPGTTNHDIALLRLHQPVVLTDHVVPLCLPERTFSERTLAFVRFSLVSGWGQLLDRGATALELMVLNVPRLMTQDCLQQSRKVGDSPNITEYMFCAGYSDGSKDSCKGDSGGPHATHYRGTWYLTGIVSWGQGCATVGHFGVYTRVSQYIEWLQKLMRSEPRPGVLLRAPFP

For a further test, the target named is T2, FVII(a) variant H115A (human, UniProt P08709 61-466).
T2 construct: hFVII alanine variant in cell culture supernatant
T2 sequence: T1 sequence with H115A, A120L

A further test concerns the target T3, FVII(a) variant T130A (human, UniProt P08709 61-466).
T3 construct: hFVII alanine variant in cell culture supernatant
T3 sequence: T1 sequence with A120L, T130A

A further test concerns the target T4, FVII(a) variant I186A (human, UniProt P08709 61-466).
T4 construct: hFVII alanine variant in cell culture supernatant
T4 sequence: T1 sequence with A120L, I186A

Another test addresses T5, FVII(a) variant Y118A (human, UniProt P08709 61-466).
T5 construct: hFVII alanine variant in cell culture supernatant
T5 sequence: T1 sequence with Y118A, A120L

Substitutions are numbered along the chain they refer to.

B1: mAb0842(OA) (antibody, human IgG4 S228P, kappa)
heavy: QVQLQESGPGLVKPSQTLSLTCTVSGYSISSDSAWSWIRQPPGKGLEWIGYIQYSGSTNYNPSLKSRVTISRDTSKNQFSLKLSSVTAADTAVYYCARSVNYYGNSFAVGYWGQGTLVTVSSASTKGPSVFPLAPCSRSTSESTAALGCLVKDYFPEPVTVSWNSGALTSGVHTFPAVLQSSGLYSLSSVVTVPSSSLGTKTYTCNVDHKPSNTKVDKRVESKYGPPCPPCPAPEFLGGPSVFLFPPKPKDTLMISRTPEVTCVVVDVSQEDPEVQFNWYVDGVEVHNAKTKPREEQFNSTYRVVSVLTVLHQDWLNGKEYKCKVSNKGLPSSIEKTISKAKGQPREPQVYTLPPSQEEMTKNQVSLSCAVKGFYPSDIAVEWESNGQPENNYKTTPPVLDSDGSFFLVSRLTVDKSRWQEGNVFSCSVMHEALHNHYTQKSLSLSLGK
light: EIVLTQSPATLSLSPGERATLSCRASQGISDYLHWYQQKPGEAPRLLIKYTSQPATGIPARFSGSGSGTDFTLTISSLEPEDFAVYYCQNGHSFPLTFGQGTKLEIKRTVAAPSVFIFPPSDEQLKSGTASVVCLLNNFYPREAKVQWKVDNALQSGNSQESVTEQDSKDSTYSLSSTLTLSKADYEKHKVYACEVTHQGLSSPVTKSFNRGEC
chain: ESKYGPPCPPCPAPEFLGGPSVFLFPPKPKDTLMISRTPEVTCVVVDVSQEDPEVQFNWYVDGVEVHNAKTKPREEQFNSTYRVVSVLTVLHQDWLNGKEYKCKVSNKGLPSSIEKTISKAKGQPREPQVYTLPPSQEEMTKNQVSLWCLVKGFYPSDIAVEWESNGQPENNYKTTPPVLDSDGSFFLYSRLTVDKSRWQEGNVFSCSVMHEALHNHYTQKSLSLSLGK
notes: also called monovalent humanized 11F2 antibody; one-armed anti-FVII(a) antibody
B1: the “Fold diff (Variant/WT)” value came out at 2 fold with FVII(a) variant L120A; 26.8 fold in the test with FVII(a) variant H115A; 105 fold with FVII(a) variant T130A; 1.3 fold with FVII(a) variant I186A; 4.9 fold in the test with FVII(a) variant Y118A.

The record behind these values is patent US20220064329A1 (Novo Nordisk, published 2022).
